The text below walks through data of the supplement of paper PMC12764529.

± gives the half width of the 95% confidence interval.

A short description of data set [1]: folding stability dG unfold from trypsin proteolysis; higher = more stable. The procedure, abridged:
(§1)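 Designed mini-proteins (under 80 residues, no cysteine) in a PA-tagged cDNA display construct were digested with trypsin and chymotrypsin. Each protease was used at 11 concentrations (threefold dilutions) plus a no-protease condition, followed by sequencing. K50 was inferred by Bayesian fitting of sequencing counts, and unfolding free energy was derived against a sequence-predicted unfolded-state K50 and a shared folded-state K50, per protease or combined. Only designs with AlphaFold2 dimer inter-PAE above 15 were kept.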

Data set [2] is described as follows: folding stability dG unfold from chymotrypsin proteolysis; higher = more stable. The procedure, abridged: as §1
A short description of data set [3]: folding stability dG unfold (combined trypsin and chymotrypsin); higher = more stable. The essentials: as §1

For “SAGGPLGNLTLDQIVDLVREAFPDLPVRVDVEPIDEETGYVRVTVEPPLPNGGTARAEFILPILPDDSAGGS [r16_564_TrMRF]”, the “folding stability dG unfold” value in data set [1] was found to be 0.787 ± 0.019 kcal/mol; in data set [2], 1.26 ± 0.066 kcal/mol; in data set [3], 1.07 ± 0.076 kcal/mol.

As to “SAGGPLQIKVEPLNRDPKDGKREVRIEITFPEEDMKKNPENRQLAEYIAKSLAKEPGADKVEVDIHWSAGGS [r16_416_TrROS]”, the “folding stability dG unfold” value in data set [1] was -0.0287 ± 0.056 kcal/mol; in data set [2], 0.441 ± 0.081 kcal/mol; in data set [3], 0.274 ± 0.095 kcal/mol.

As to “SAGGPLRIHISIENPNGKTLTYQIPLPPGDPEEAVKEIADEMKERGGTITSIEIENGVITITVRIPPSAGGS [r16_662_TrROS]”, the “folding stability dG unfold” value in data set [1] was determined as 2.32 ± 0.059 kcal/mol; in data set [2], 2.97 ± 0.046 kcal/mol; in data set [3], 2.8 ± 0.075 kcal/mol.

Regarding “SAGGPLTEEQLKEQAKQIKDQLAKEFADMNGFPVTEIDDVEVVPDGWISIEIEYPGMGMPYTITIPWSAGGS [r16_622_TrROS]”, the entries for the “folding stability dG unfold” value in data set [1], in data set [2] and in data set [3] were 0.887 ± 0.053 kcal/mol, 1.02 ± 0.16 kcal/mol and 1.02 ± 0.095 kcal/mol, respectively.

For “SAGGPNIRIDINLMPHPGKPYIMVRIEIPNGYKREIMFNPDDGKISIEIRYPGKEEKIEFPLDDIKPISAGG [r13_328_TrROS]”, the “folding stability dG unfold” value in data set [1] amounted to 3.48 ± 0.5 kcal/mol; in data set [2], 4.7 ± 0.3 kcal/mol; in data set [3], 4.42 ± 0.32 kcal/mol.

Regarding “SAGGPNKPIKIKIMIWRDPGGWYIAIRIPDGNTRMFKSPEQIKSILEKFPGLKIDEIEIIPPDQMKKLSAGG [r13_730_TrROS]”, the entries for the “folding stability dG unfold” value in data set [1], in data set [2] and in data set [3] were 1.7 ± 0.025 kcal/mol, 2.23 ± 0.073 kcal/mol and 2 ± 0.079 kcal/mol, respectively.

Consider “SAGGPNWMQMEIWLPPGNPEKIEKIIRDKGWKVEDIKVKEVNPNNGWMRVTIYMPGPWPMDEIKEAVRSAGG [r13_725_TrROS]”, for which the “folding stability dG unfold” value stood at 1.96 ± 0.11 kcal/mol in data set [1], 3.6 ± 0.16 kcal/mol in data set [2] and 3.15 ± 0.25 kcal/mol in data set [3].

Turning to “SAGGPNWYLKVKIEHRYPNPDNGKWQERRMEVIIPFKDPDQLPPNALKKLIDIMQPMGFRVDVELFPWSAGG [r13_926_TrROS]”, the “folding stability dG unfold” value in data set [1] was determined as 3.19 ± 0.23 kcal/mol; in data set [2] it was 3.99 ± 0.12 kcal/mol; in data set [3], 3.76 ± 0.28 kcal/mol.

As to “SAGGPPEGEKKKFRIDDVQPMPNPNGYFMVQIRYNDKPVSSIPIPPNNLDKLANDLPPGMEVEIYPFSAGGS [r8_41_TrROS]”, the “folding stability dG unfold” value is 0.06 ± 0.11 kcal/mol in data set [1], 0.511 ± 0.19 kcal/mol in data set [2] and 0.369 ± 0.21 kcal/mol in data set [3].

Consider “SAGGPPFKIKEINIQYNPDAGYVTMTFTFDDGATVEAMISPEEGRIPGKVEVPGKEIEHEFEIPVPPSAGGS [r8_363_TrROS]”, for which the “folding stability dG unfold” value was determined as 1.4 ± 0.041 kcal/mol in data set [1], 1.5 ± 0.099 kcal/mol in data set [2] and 1.38 ± 0.19 kcal/mol in data set [3].

As for “SAGGPPGDPILLRISYTIRPNGKERTMDHEIPFKNPNQPITLEQIRKELRDALPPGYKITDVEIDVLSAGGS [r16_407_TrROS]”, the “folding stability dG unfold” value in data set [1] was determined as 0.364 ± 0.069 kcal/mol; in data set [2], 0.276 ± 0.16 kcal/mol; in data set [3], 0.444 ± 0.1 kcal/mol.

In the case of “SAGGPPGEEIPIMVRIKMRNPENGEEMELPITHTVKSKEDLKWAKKLVDEIAEEFREQGMKDVEIEIFSAGG [r13_360_TrROS]”, the “folding stability dG unfold” value was 0.47 ± 0.15 kcal/mol in data set [1], 1.07 ± 0.21 kcal/mol in data set [2] and 0.908 ± 0.15 kcal/mol in data set [3].

On to “SAGGPPPDTTVTVTLTRTTPTQWLIEFPATGEVREIPRDPAASDEEAKELVKELAKEEGYNVNINLTSAGGS [r16_446_JUSTAS]”, for which the “folding stability dG unfold” value in data set [1] was 1.05 ± 0.081 kcal/mol; in data set [2], 0.438 ± 0.29 kcal/mol; in data set [3], 0.812 ± 0.3 kcal/mol.

For the sequence “SAGGPPSVWIPIEINFPDSPEQLLEEVENAAQEIADLFGIPVKIEVERNPKKGYATIWIRVDGKTIPISAGG [r13_845_TrROS]”, the “folding stability dG unfold” value in data set [1] was determined as 1.66 ± 0.041 kcal/mol; in data set [2] it was 1.7 ± 0.11 kcal/mol; in data set [3], 1.71 ± 0.22 kcal/mol.

As for “SAGGPPVTIMIRLPPLQEQLPPEWLEKLKNIRVPNGHPIKDIDVQPHNGRWVIMIKVDSPEQARDIIRSAGG [r13_269_TrROS]”, the “folding stability dG unfold” value in data set [1] was found to be 1.66 ± 0.048 kcal/mol; in data set [2], 1.89 ± 0.053 kcal/mol; in data set [3] it was 1.75 ± 0.13 kcal/mol.

As for “SAGGPPYYMIKIRYPDNGKEYEIPPGIKVHRDPNNEVYIMFRSPAAADDLVDEIAPTNGLRVEIEPFSAGGS [r8_131_TrROS]”, the figures for the “folding stability dG unfold” value in data set [1], in data set [2] and in data set [3] were 0.945 ± 0.23 kcal/mol, 1.07 ± 0.24 kcal/mol and 0.915 ± 0.3 kcal/mol, respectively.

For the sequence “SAGGPRITITYPLPPGDIEKIEKLAKEALDNGDNVDVNIPHPNGWYVTLTVDPPNGKIEEVEWQPPDKSAGG [r13_873_TrROS]”, the results for the “folding stability dG unfold” value in data set [1], in data set [2] and in data set [3] were 0.571 ± 0.076 kcal/mol, 0.598 ± 0.061 kcal/mol and 0.499 ± 0.12 kcal/mol, respectively.

As to “SAGGPSIPGEKIRELLEKGYSLEEIVEFLEKENIPIARIEGVEPHPNSITIVFYNPETGEKITAVIGSAGGS [r8_179_TrMRF]”, the “folding stability dG unfold” value in data set [1] came to 2.02 ± 0.058 kcal/mol; in data set [2], 2.96 ± 0.081 kcal/mol; in data set [3], 2.72 ± 0.14 kcal/mol.
